Patent publication US7192735
Values joined by “and” are separate entries in the source; they are usually repeats but may differ in a detail not shown here. Equal values may be shown once.

Assays:
[1] = molecular target: EntF (E. coli enterobactin synthetase component), apo form (UniProt P11454)
[2] = tested on: Streptomycete ACP involved in granaticin polyketide antibiotic biosynthesis (apo-form)
[3] = tested on: Streptomycete ACP involved in oxytetracycline polyketide antibiotic biosynthesis (apo-form)
[4] = molecular target: E. coli fatty acid synthase apo-acyl carrier protein (apo-ACP) (UniProt P0A6A8)
Chain of E. coli fatty acid synthase apo-acyl carrier protein (apo-ACP) (P0A6A8 2-78): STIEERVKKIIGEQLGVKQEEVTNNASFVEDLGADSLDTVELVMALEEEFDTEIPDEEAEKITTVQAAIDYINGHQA

[5] = tested on: Streptomycete ACP involved in tetracenomycin polyketide antibiotic biosynthesis (apo-form)
[6] = tested on: Rhizobial NodF (wild-type)
[7] = tested on: Streptomycete ACP involved in frenolicin polyketide antibiotic biosynthesis (apo-form)
[8] = tested on: Lactobacillus casei D-Alanyl carrier protein (apo-Dcp)
[9] = molecular target: T1, His6-SrfB1 (N-terminal hexa-histidine-tagged SrfB1 valine-activating domain of surfactin synthetase) (UniProt Q04747)
T1 sequence: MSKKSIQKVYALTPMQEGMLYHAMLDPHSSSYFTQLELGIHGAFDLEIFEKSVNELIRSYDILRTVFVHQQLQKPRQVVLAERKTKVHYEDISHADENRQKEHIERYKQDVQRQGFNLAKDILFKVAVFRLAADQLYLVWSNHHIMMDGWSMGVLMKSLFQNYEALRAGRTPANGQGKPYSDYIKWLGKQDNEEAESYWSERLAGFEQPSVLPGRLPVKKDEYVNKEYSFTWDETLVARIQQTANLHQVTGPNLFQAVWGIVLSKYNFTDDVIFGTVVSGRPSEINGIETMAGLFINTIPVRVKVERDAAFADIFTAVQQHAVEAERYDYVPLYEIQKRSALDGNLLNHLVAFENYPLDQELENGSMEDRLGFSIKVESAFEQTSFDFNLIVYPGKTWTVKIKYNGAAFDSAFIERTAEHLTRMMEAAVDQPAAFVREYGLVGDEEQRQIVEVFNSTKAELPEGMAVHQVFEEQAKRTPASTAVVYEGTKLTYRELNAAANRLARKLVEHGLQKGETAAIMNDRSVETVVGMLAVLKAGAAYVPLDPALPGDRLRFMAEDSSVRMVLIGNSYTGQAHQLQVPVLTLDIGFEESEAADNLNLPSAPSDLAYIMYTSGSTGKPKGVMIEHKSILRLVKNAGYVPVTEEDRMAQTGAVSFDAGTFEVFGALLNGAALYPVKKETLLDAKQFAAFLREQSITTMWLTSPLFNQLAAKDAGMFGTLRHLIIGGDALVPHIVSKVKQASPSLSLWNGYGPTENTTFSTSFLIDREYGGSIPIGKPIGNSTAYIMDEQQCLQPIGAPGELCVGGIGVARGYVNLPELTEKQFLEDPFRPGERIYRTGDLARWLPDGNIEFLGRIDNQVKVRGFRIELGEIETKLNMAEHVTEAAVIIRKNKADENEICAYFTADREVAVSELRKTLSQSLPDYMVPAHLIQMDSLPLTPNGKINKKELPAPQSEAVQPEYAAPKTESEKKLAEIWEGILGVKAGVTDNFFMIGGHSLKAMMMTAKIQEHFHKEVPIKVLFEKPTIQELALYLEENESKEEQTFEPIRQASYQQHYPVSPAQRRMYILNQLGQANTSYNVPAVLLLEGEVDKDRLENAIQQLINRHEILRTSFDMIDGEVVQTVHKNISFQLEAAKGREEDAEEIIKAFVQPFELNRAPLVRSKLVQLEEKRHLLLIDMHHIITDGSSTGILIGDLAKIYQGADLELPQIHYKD

[10] = tested on: His6-peptidyl carrier protein (PCP domain of TycA, hexa-histidine tagged)
[11] = molecular target: His6-SrfB1 (N-terminal hexa-histidine-tagged SrfB1 valine-activating domain of surfactin synthetase) (Bacillus) (UniProt Q04747); assay: cell-based or functional assay

Chain of EntF (E. coli enterobactin synthetase component), apo form (P11454 whole entry): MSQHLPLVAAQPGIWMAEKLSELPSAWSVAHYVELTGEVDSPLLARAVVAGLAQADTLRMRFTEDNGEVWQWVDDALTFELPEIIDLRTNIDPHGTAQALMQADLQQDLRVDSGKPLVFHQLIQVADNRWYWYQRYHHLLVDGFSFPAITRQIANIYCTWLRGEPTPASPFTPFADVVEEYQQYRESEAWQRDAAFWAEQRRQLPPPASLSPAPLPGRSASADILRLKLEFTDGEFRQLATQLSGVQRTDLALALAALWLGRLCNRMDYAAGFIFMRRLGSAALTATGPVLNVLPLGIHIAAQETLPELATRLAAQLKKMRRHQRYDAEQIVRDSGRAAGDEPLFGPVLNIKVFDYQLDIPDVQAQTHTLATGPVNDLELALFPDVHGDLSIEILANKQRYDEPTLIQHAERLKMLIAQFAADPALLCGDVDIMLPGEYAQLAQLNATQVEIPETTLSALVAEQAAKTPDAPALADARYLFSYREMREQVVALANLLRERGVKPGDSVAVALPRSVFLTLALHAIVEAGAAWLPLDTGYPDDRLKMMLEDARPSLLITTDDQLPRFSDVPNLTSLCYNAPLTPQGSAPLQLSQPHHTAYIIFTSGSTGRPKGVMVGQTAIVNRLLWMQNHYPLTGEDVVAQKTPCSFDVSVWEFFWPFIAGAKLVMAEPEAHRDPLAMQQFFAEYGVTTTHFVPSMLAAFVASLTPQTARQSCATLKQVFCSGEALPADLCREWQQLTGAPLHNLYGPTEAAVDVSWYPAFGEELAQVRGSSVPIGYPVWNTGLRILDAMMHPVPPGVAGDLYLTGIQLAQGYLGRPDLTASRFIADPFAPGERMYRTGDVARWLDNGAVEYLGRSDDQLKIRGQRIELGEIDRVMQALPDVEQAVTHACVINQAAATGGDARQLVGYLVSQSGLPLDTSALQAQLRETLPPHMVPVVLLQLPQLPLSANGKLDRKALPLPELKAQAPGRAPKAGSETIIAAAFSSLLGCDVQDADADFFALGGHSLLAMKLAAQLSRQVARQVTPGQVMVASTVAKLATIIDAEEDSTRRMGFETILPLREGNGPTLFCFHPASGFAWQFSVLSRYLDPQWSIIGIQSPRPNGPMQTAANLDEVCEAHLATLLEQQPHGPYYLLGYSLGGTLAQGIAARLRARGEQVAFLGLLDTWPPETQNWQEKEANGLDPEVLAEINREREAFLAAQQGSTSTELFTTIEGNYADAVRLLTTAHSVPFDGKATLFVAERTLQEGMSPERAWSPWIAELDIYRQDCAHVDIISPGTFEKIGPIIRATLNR

EntD (E. coli), recombinant from pET28b-entD
incorporation of [3H]-4'-Ppant [1]: EntD is capable of phosphopantetheinylating an EntF fragment
time course of incorporation of radiolabel into EntF [1]: EntF is modified effectively by EntD (100 nM)

Escherichia coli holo-acyl carrier protein synthase (ACPS)
phosphopantetheinylation [2]: E. coli ACPS modifies the apo-form of Streptomycete ACPs involved in frenolicin, granaticin, oxytetracycline, and tetracenomycin polyketide antibiotic biosynthesis
phosphopantetheinylation [3]: E. coli ACPS modifies the apo-form of Streptomycete ACPs involved in frenolicin, granaticin, oxytetracycline, and tetracenomycin polyketide antibiotic biosynthesis
% conversion [4]: 46% conversion
Km value for apo-ACP [4]: we were able to assign an upper limit of ˜1 µM to the Km value for apo-ACP
[3H]phosphopantetheine incorporated (+ ACPS) [4]: 1 320 000 dpm
apparent kcat [4]: An apparent kcat value of about 10 min^-1 was measured at saturating CoA and 50 µM apo-ACP
radioactivity incorporated into the protein fraction (ACP + ACPS) [4]: 2.13 × 10^6 (±.65%) and 2.20 × 10^6 (±.64%) and 2.21 × 10^6 (±.63%)
time course of holo-ACP formation [4]: almost exclusive modification of apo-ACP by ACPS
[3H]phosphopantetheine incorporated (+ ACPS) (ACP-NodF chimera): 122 000 dpm
phosphopantetheinylation [5]: E. coli ACPS modifies the apo-form of Streptomycete ACPs involved in frenolicin, granaticin, oxytetracycline, and tetracenomycin polyketide antibiotic biosynthesis
% conversion [6]: 47% conversion
[3H]phosphopantetheine incorporated (+ ACPS) [6]: 236 000 dpm
phosphopantetheinylation [7]: E. coli ACPS modifies the apo-form of Streptomycete ACPs involved in frenolicin, granaticin, oxytetracycline, and tetracenomycin polyketide antibiotic biosynthesis
[^3H] holo-Dcp formed versus apo-Dcp [8]: the amount of holo-Dcp formed increases linearly with the amount of apo-Dcp in the reaction
radioactivity incorporated into the protein fraction (Dcp + ACPS) [8]: 0.98 × 10^6 (±0.95%) and 1.04 × 10^6 (±0.93%) and 1.00 × 10^6 (±0.77%)
time course of incorporation of radiolabel into EntF [1]: EntF undergoes almost no modification in the presence of 15-fold higher concentrations of ACPS and o195

Sfp (B. subtilis phosphopantetheinyl transferase)
phosphopantetheinylation [4]: Sfp efficiently catalyzes modification of all three substrates
incorporation of [3H]-4'-Ppant [9]: Sfp is capable of phosphopantetheinylating an SfrB1 fragment
[3H]-4'-Ppant incorporated versus substrate concentration [10]: Sfp is capable of phosphopantetheinylating a substrate, such as PCP, in a wide range of concentrations
phosphopantetheinylation [10]: Sfp efficiently catalyzes modification of all three substrates

Sfp (B. subtilis phosphopantetheinyl transferase) (enzyme)
level of [^14C]-L-valine-holo-SrfB1 covalent complex formed [11]: 14 fold
